Source: the supplement of paper PMC10567573

B1: DCAF4 (parent)
chain: TTKCVRQYEGHVNEYAYLPLHVHE
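Further: lentivirally expressed fusions sorted by FACS into six bins by GFP to DsRed ratio, PSI derived from sequencing read proportions per bin multiplied by bin number.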

Variants of: B1
Assay: protein stability index of a GFP-peptide fusion (GPS, HEK-293T) (PSI 1-6); higher = more stable
Conditions: c terminus: a fixed tail appended
Variant TTKCVRQYEGHVNEYNYLPLHVHE [A16N] has a protein stability index of 2.6. For TTKCVRQYEGHVNEYFYLPLHVHE [A16F], the protein stability index was 2.32. Variant TTKCVRQYEGHVNEYVYLPLHVHE [A16V] has a protein stability index of 2.2. Work on TTKCVRQYEGHVNEYMYLPLHVHE [A16M] yielded a protein stability index of 2.34. For TTKCVRQYEGHVNEYCYLPLHVHE [A16C], the protein stability index was 2.44. In the case of TTKCVRQYEGHVNEYTYLPLHVHE [A16T], the protein stability index is reported as 2.82. TTKCVRQYEGHVNEYAYLPQHVHE [L20Q] showed a protein stability index of 3.06. In the case of TTKCVRQYEGHVNEYAYLPHHVHE [L20H], the protein stability index is reported as 3. With TTKCVRQYEGHVNEYAYLPVHVHE [L20V] the protein stability index was 2.44. TTKCVRQYEGHVNEYAYLPDHVHE [L20D] gave a protein stability index of 3.64. Work on TTKCVRQYEGHVNEYAYLPIHVHE [L20I] yielded a protein stability index of 2.74. TTKCVRQYEGHVNEYAYLPMHVHE [L20M] gave a protein stability index of 2.63. TTKCVRQYEGHVNEYAYLPSHVHE [L20S] gave a protein stability index of 3.13. Variant TTKCVRQYEGHVNEYAYLPNHVHE [L20N] has a protein stability index of 3.1. For TTKCVRQYEGHVNEYAYLPKHVHE [L20K], the protein stability index was 2.8. In the case of TTKCVRQYEGHVNEYAYNPLHVHE [L18N], the protein stability index is reported as 3.15. Variant TTKCVRQYEGHVNEYAYTPLHVHE [L18T] has a protein stability index of 2.79. Work on TTKCVRQYEGHVNEYAYPPLHVHE [L18P] yielded a protein stability index of 2.75. With TTKCVRQYEGHVNEYAYFPLHVHE [L18F] the protein stability index was 2.51. With TTKCVRQYEGHVNEYAYCPLHVHE [L18C] the protein stability index was 2.74. For TTKCVRQYEGHVNEYAYKPLHVHE [L18K], the protein stability index was 2.76. With TTKCVRQYEGHVNEYAYEPLHVHE [L18E] the protein stability index was 3.58. Work on TTKCVRQYEGHVNEYAYHPLHVHE [L18H] yielded a protein stability index of 3.09. With TTKCVRQYEGHVNEYAYDPLHVHE [L18D] the protein stability index was 3.8. In the case of TTKCVRQYEEHVNEYAYLPLHVHE [G10E], the protein stability index is reported as 3.3. TTKCVRQYEHHVNEYAYLPLHVHE [G10H] gave a protein stability index of 2.31. TTKCVRQYEPHVNEYAYLPLHVHE [G10P] gave a protein stability index of 2.18. In the case of TTKCVRQYEYHVNEYAYLPLHVHE [G10Y], the protein stability index is reported as 2.29. TTKCVRQYEFHVNEYAYLPLHVHE [G10F] showed a protein stability index of 1.66. Work on TTKCVRQYEIHVNEYAYLPLHVHE [G10I] yielded a protein stability index of 1.43. For TTKCVRQYECHVNEYAYLPLHVHE [G10C], the protein stability index was 2.61. TIKCVRQYEGHVNEYAYLPLHVHE [T2I] gave a protein stability index of 2.19. Variant TDKCVRQYEGHVNEYAYLPLHVHE [T2D] has a protein stability index of 3.24. Variant TNKCVRQYEGHVNEYAYLPLHVHE [T2N] has a protein stability index of 2.99. TLKCVRQYEGHVNEYAYLPLHVHE [T2L] showed a protein stability index of 2.15. In the case of TTKCVRQYEGHVNEYAYLSLHVHE [P19S], the protein stability index is reported as 1.46. Work on TTKCVRQYEGHVNEYAYLRLHVHE [P19R] yielded a protein stability index of 1.91. In the case of TTKCVRQYEGHVNEYAYLNLHVHE [P19N], the protein stability index is reported as 2.33. Variant TTKCVRQYEGHVNEYAYLYLHVHE [P19Y] has a protein stability index of 2.67. With TTKCVRQYEGHVNEYAYLTLHVHE [P19T] the protein stability index was 1.53. Variant TTKCVRQYEGHVNEYAYLLLHVHE [P19L] has a protein stability index of 2.16. In the case of TTKCVRQYEGHVNEYAYLKLHVHE [P19K], the protein stability index is reported as 1.87. In the case of TTKCVRQYEGHVNMYAYLPLHVHE [E14M], the protein stability index is reported as 1.43. In the case of TTKCVRQYEGHVNDYAYLPLHVHE [E14D], the protein stability index is reported as 2.79. For TTKCVRQYEGHVNVYAYLPLHVHE [E14V], the protein stability index was 1.44. In the case of TTKCVRQYEGHVNCYAYLPLHVHE [E14C], the protein stability index is reported as 2.03. Work on TTKCVRQYEGHVNQYAYLPLHVHE [E14Q] yielded a protein stability index of 2.35. Work on TTKCVRQYEGHVNFYAYLPLHVHE [E14F] yielded a protein stability index of 3.16. Work on TTKCVRQYEGHVNSYAYLPLHVHE [E14S] yielded a protein stability index of 2.05. TTKGVRQYEGHVNEYAYLPLHVHE [C4G] showed a protein stability index of 2.67. With TTKLVRQYEGHVNEYAYLPLHVHE [C4L] the protein stability index was 2.86. In the case of TTKVVRQYEGHVNEYAYLPLHVHE [C4V], the protein stability index is reported as 3.08. In the case of TTKWVRQYEGHVNEYAYLPLHVHE [C4W], the protein stability index is reported as 2.29. For TTCCVRQYEGHVNEYAYLPLHVHE [K3C], the protein stability index was 2.62. Work on TTPCVRQYEGHVNEYAYLPLHVHE [K3P] yielded a protein stability index of 3.58. In the case of TTQCVRQYEGHVNEYAYLPLHVHE [K3Q], the protein stability index is reported as 3.25. Variant TTNCVRQYEGHVNEYAYLPLHVHE [K3N] has a protein stability index of 2.98. For TTKCVRQTEGHVNEYAYLPLHVHE [Y8T], the protein stability index was 3.15. Work on TTKCVRQKEGHVNEYAYLPLHVHE [Y8K] yielded a protein stability index of 3.52. Variant TTKCVRQIEGHVNEYAYLPLHVHE [Y8I] has a protein stability index of 2.82. TTKCVRQPEGHVNEYAYLPLHVHE [Y8P] gave a protein stability index of 2.42. In the case of TTKCVRQNEGHVNEYAYLPLHVHE [Y8N], the protein stability index is reported as 3.31. With TTKCVRQEEGHVNEYAYLPLHVHE [Y8E] the protein stability index was 4.03. Work on TTKCVRQYEGHVNEYAYLPLHYHE [V22Y] yielded a protein stability index of 2.43. Work on TTKCVRQYEGHVNEYAYLPLHDHE [V22D] yielded a protein stability index of 3.85. TTKCVRQYEGHVNEYAYLPLHIHE [V22I] showed a protein stability index of 2.42. Work on TTKCVRQYEGHVNEYAYLPLHAHE [V22A] yielded a protein stability index of 2.79. Work on TTKCVRQYEGHVNEYAYLPLHEHE [V22E] yielded a protein stability index of 3.65. Work on TTKCVRQYEGHVNEYAYLPLHVWE [H23W] yielded a protein stability index of 1.9. For TTKCVRQYEGHVNEYAYLPLHVYE [H23Y], the protein stability index was 2.24. Work on TTKCVRQYEGHVNEYAYLPLHVLE [H23L] yielded a protein stability index of 2.51. With TTKCVRQYEGHVNEYAYLPLHVVE [H23V] the protein stability index was 2.19. Variant TTKCVRQYEGHVNEYAYLPLHVGE [H23G] has a protein stability index of 2.76. Work on TTKCVRQYEGHVNEYAYLPLHVQE [H23Q] yielded a protein stability index of 3.38. For TTKCVRQYEGHVNEYAYLPLHVIE [H23I], the protein stability index was 3.56. In the case of TTKCVRQYEGHVNEYAYLPLHVTE [H23T], the protein stability index is reported as 2.37. For TTKCVRQYEGHVNEYAYLPLHVRE [H23R], the protein stability index was 2.48. TTKCVRQYEGHVNEYAYLPLHVKE [H23K] gave a protein stability index of 3.44. Variant TTKCVRQYEGHVNEHAYLPLHVHE [Y15H] has a protein stability index of 3.02. With TTKCVRQYEGHVNEQAYLPLHVHE [Y15Q] the protein stability index was 3.32. Variant TTKCVRQYEGHVNEVAYLPLHVHE [Y15V] has a protein stability index of 3. Variant TTKCVRQYEGHVNEFAYLPLHVHE [Y15F] has a protein stability index of 3.08. For TTKCVRQYEGHVNEYAYLPLPVHE [H21P], the protein stability index was 2.63. With TTKCVRQYEGHVNEYAYLPLCVHE [H21C] the protein stability index was 2.56. In the case of TTKCVRQYEGHVNEYAYLPLFVHE [H21F], the protein stability index is reported as 1.87. In the case of TTKCVRQYEGHVNEYAYLPLLVHE [H21L], the protein stability index is reported as 2.2. For TTKCVRQYEGHVNEYAYLPLWVHE [H21W], the protein stability index was 1.75. TTKCVRNYEGHVNEYAYLPLHVHE [Q7N] showed a protein stability index of 2.54. In the case of TTKCVRYYEGHVNEYAYLPLHVHE [Q7Y], the protein stability index is reported as 1.79. TTKCVRKYEGHVNEYAYLPLHVHE [Q7K] gave a protein stability index of 2.77. TTKCVRVYEGHVNEYAYLPLHVHE [Q7V] showed a protein stability index of 2.24. With TTKCVRFYEGHVNEYAYLPLHVHE [Q7F] the protein stability index was 1.87. In the case of TTKCVRGYEGHVNEYAYLPLHVHE [Q7G], the protein stability index is reported as 2.13. With TTKCVRWYEGHVNEYAYLPLHVHE [Q7W] the protein stability index was 1.88.
